Laboratory results reported in paper PMC9729196, “An in silico method to assess antibody fragment polyreactivity” (Nature Communications, 2022).
Where two headings read alike, the source gives them in different places.

T1: wild-type human FLAG-AT1R (angiotensin II type 1 receptor) (human, UniProt P30556 1-359)
T1 chain: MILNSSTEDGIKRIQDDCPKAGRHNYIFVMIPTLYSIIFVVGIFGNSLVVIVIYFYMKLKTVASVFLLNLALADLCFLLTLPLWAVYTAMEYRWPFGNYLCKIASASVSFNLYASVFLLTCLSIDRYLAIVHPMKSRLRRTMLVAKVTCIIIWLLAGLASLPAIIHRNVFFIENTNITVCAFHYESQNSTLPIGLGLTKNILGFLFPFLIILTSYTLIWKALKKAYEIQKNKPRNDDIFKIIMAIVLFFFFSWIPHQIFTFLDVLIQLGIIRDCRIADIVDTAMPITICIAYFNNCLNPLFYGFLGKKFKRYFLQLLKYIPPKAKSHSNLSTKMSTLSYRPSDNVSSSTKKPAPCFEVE


What was measured:
[1] = target: T1, wild-type human FLAG-AT1R (angiotensin …)
[2] = target: T1, wild-type human FLAG-AT1R (angiotensin …); assay: FACS
[3] = target: T2, wild-type human FLAG-AT1R (angiotensin II type 1 receptor) (Homo sapiens, UniProt P30556); assay: radioligand binding; competition of nanobody with 2 nM [3H]-olmesartan on membranes of FLAG-AT1R cells; 50 mM Tris pH 7.4, 12.5 mM MgCl2, 150 mM NaCl, 0.2% BSA, 90 min, room temperature; Ki from a one-site competition model; settings: one partner purified
T2 construct: angiotensin II type 1 receptor (AT1R), human, wild type; Cells were gated with the M1 anti-FLAG antibody; also called angiotensin II type I receptor; source: Expi293F TetR cells, stably transfected (pCDNA Zeo-TetO), induced with doxycycline; on cells, or in cell membranes prepared from them

[4] = target: T1, wild-type human FLAG-AT1R (angiotensin …); assay: [3H]-olmesartan competition, membranes
[5] = target: T2, wild-type human FLAG-AT1R (angiotensin …); assay: flow cytometry on cells; Expi293F cells expressing FLAG-AT1R stained with 20 nM nanobody (C-terminal V5), 1 h, 4 °C, 20 mM Hepes pH 7.4, 150 mM NaCl, 0.1% BSA; detected with Alexa 647 anti-V5; gated for M1 anti-FLAG-positive singlets; settings: one partner purified
insulin = insulin (Homo sapiens (assumed; ), UniProt P01308)
insulin, sequence (F8WCM5 25-54, chain 1 of 2): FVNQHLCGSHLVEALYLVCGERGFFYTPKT
insulin, sequence (P01308 90-110, chain 2 of 2): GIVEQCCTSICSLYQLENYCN

Binder	Ki [1] [nM]	Kd [2] [nM]	also measured
AT118i4h32 G26D^27 T57I^65 (VHH, as the chain of m1 with the two stated substitutions; its own crystal structure is one of PDB 7T83 and 7T84 (crystallised construct: N-terminal Met-Ala, C-terminal His tag); the superscripts are IMGT numbers; also called G26D^27 T57I^65 variant; source: E. coli BL21(DE3), pET26b, purified (Protein A, Ni-NTA); not shown: V5, C-terminal, kept; His6, C-terminal, kept) VHH: EVQLVESGGGLVQPGGSLRLSCAASDYIYRRYRMGWYRQAPGKGREFVAAISGGSSINYADSVKGRFTISRDNSKNTVYLQMNSLRAEDTAVYYCAAYRIVSDPRVYWGQGTQVTVSS	79.4	54	binding result [3]: binds
AT118i4h32 G26D^27 (VHH) VHH: EVQLVESGGGLVQPGGSLRLSCAASDYIYRRYRMGWYRQAPGKGREFVAAISGGSSTNYADSVKGRFTISRDNSKNTVYLQMNSLRAEDTAVYYCAAYRIVSDPRVYWGQGTQVTVSS	70.8	–	–
AT118i4h32 T57D^65 (VHH, as the chain of m1 with the stated substitution; the superscript is the IMGT number; also called T57D^65 substitution; source: E. coli BL21(DE3), pET26b, purified (Protein A, Ni-NTA); not shown: V5, C-terminal, kept; His6, C-terminal, kept) VHH: EVQLVESGGGLVQPGGSLRLSCAASGYIYRRYRMGWYRQAPGKGREFVAAISGGSSDNYADSVKGRFTISRDNSKNTVYLQMNSLRAEDTAVYYCAAYRIVSDPRVYWGQGTQVTVSS	–	–	fold decrease of binding against the wild type [5]: 2 fold
F10' (VHH) VHH: QVQLVESGGGLVQAGGSLRLSCAASGSTFWWYAMGWYRQAPGKERELVATISRGGSTNYADSVKGRFTISRDNAKNTVYLQMNSLKPEDTAVYYCARKTRDIRLDYWGQGTQVTVSS	–	–	binding result (insulin): binds

Second part, led by results:

Ki [1] [nM]	Kd [2] [nM]	Binder	also measured
–	58.3	AT118i4h32 (VHH, coordinates of the AT118i4h32 structures are deposited as PDB 7T83 and 7T84 (the crystallised construct has an N-terminal Met-Ala and a C-terminal His tag); humanised form of AT118 (eleven substitutions towards human VH3-23); Nanobody antagonist of AT1R from a synthetic library, humanised; also called WT AT118i4h32; wild-type nanobody; source: E. coli BL21(DE3), pET26b, purified (Protein A, …)) VHH: EVQLVESGGGLVQPGGSLRLSCAASGYIYRRYRMGWYRQAPGKGREFVAAISGGSSTNYADSVKGRFTISRDNSKNTVYLQMNSLRAEDTAVYYCAAYRIVSDPRVYWGQGTQVTVSS	Ki [4]: 72.4 nM; binding result [5]: binds
64.6	–	AT118i4h32 T57I^65 (VHH) VHH: EVQLVESGGGLVQPGGSLRLSCAASGYIYRRYRMGWYRQAPGKGREFVAAISGGSSINYADSVKGRFTISRDNSKNTVYLQMNSLRAEDTAVYYCAAYRIVSDPRVYWGQGTQVTVSS	–
